According to IntAct's records for PubMed 19040637:

B1: Probable glutaredoxin ssr2061 (Synechocystis sp. (strain PCC 6803 / Kazusa)), P73492 (parent)
chain: MAVSAKIEIYTWSTCPFCMRALALLKRKGVEFQEYCIDGDNEAREAMAARANGKRSLPQIFIDDQHIGGCDDIYALDGAGKLDPLLHS
partner: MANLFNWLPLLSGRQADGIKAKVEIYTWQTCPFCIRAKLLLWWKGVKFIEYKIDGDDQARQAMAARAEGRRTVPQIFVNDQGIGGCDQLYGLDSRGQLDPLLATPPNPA
B2: Probable glutaredoxin slr1562 (Synechocystis sp. (strain PCC 6803 / Kazusa)), P74593 (parent)
chain: B1 partner
partner: B1 chain

Variants of: B1
Conditions: with glrx1_syny3 glrx1, P74593

| Variant | effect of a mutation on the interaction |
| --- | --- |
| L22K | decreasing interaction strength |
| C18S | decreasing interaction strength |
| C36S | decreasing interaction strength |

Variants of: B2
Conditions: with glrx2_syny3 glrx2, P73492

| Variant | effect of a mutation on the interaction |
| --- | --- |
| C31S | decreasing interaction strength |
| C86S | disrupting interaction strength |
| C34S | disrupting interaction strength |
